From patent US20080261201A1, “Methods and compounds to alter virus infection” (priority 2006, published 2008)
Like-named read-outs stand apart in the source and are kept apart here.

Columns and labels:
AAV2 [1] = experiment: AAV2 (AV2Luc) transduction of HeLa cells, luciferase activity; assay type: cell-based; settings: for inhibition of AAV2 transduction: DPI 10 μM
Description: (§1) Recombinant type-2 adeno-associated viruses encoding luciferase (AV2Luc) or factor VIII (AV2FVIII) transgenes were used for infection of different cell types. HeLa and IB3 cells were cultured in DMEM supplemented with 10% fetal bovine serum (FBS) and antibiotics. Nox 1 and Nox2 knockout and wild-type (wt) littermate control mouse dermal fibroblasts were generated from newborn mice as described in Bosu et al. (2001) and below. For all infections, viruses were applied to cells in serum-free DMEM, and an equal volume of 20% FBS/DMEM was added at 2 hours post-infection.
(§2) In studies evaluating viral entry, cells were incubated with 1,000 particles/cell of AV2FVIII at 4° C. for 30 minutes prior to removing virus, washing cells, and shifting cells to 37° C. Cells were then incubated for the indicated times and postnuclear supernatants (PNS) were prepared for analysis of intracellular AAV2. Taqman PCR was used to quantify the abundance of viral genomes in different subcellular fractions following infection using primer sets and methods described in Ding et al. (2006). When proteasome inhibitors were added to induce AAV2 transduction, LLnL (Boston Biochem, Cambridge, Mass.) and/or doxorubicin (Calbiochem, San Diego, Calif.), were present in the medium at concentrations of 40 μM and 5 μM, respectively. Modulation of endosomal ROS was achieved by adding 1 mg/mL of purified bovine Cu/Zn superoxide dismutase (Cu/ZnSOD) (Oxis Research, Portland, Oreg.) and/or catalase (Sigma-Aldrich, St. Louis, Mo.) to the medium which was then applied to cells 20 minutes prior to viral infections unless indicated otherwise. SOD and/or catalase remained in the medium during infection unless otherwise indicated.

AAV2 capsid PLA2 = AAV2 capsid PLA2 (Adeno-associated virus 2, UniProt P03135)
Sequence of AAV2 capsid PLA2 (P03135 whole entry): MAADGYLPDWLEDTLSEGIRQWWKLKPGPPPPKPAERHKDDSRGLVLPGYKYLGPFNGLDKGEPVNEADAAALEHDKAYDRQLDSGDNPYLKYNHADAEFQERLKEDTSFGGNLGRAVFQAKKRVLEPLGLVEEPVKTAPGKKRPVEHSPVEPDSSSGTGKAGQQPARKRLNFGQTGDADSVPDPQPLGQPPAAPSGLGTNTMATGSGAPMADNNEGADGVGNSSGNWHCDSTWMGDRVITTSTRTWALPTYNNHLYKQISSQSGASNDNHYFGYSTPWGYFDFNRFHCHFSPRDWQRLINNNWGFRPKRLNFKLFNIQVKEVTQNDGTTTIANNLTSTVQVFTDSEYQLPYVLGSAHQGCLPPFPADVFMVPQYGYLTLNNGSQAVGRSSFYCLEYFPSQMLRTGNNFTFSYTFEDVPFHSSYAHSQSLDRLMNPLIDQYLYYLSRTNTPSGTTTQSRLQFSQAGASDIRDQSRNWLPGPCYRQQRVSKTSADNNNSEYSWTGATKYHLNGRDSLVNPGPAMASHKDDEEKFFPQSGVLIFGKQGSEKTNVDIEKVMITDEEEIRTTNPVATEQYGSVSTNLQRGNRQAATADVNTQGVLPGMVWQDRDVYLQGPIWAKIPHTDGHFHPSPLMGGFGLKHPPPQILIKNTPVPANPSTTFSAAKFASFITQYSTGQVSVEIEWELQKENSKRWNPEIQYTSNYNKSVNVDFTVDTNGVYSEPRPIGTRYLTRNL
Sequence of AAV2 capsid PLA2 (P03135 1-598 isoform P03135-2 partner): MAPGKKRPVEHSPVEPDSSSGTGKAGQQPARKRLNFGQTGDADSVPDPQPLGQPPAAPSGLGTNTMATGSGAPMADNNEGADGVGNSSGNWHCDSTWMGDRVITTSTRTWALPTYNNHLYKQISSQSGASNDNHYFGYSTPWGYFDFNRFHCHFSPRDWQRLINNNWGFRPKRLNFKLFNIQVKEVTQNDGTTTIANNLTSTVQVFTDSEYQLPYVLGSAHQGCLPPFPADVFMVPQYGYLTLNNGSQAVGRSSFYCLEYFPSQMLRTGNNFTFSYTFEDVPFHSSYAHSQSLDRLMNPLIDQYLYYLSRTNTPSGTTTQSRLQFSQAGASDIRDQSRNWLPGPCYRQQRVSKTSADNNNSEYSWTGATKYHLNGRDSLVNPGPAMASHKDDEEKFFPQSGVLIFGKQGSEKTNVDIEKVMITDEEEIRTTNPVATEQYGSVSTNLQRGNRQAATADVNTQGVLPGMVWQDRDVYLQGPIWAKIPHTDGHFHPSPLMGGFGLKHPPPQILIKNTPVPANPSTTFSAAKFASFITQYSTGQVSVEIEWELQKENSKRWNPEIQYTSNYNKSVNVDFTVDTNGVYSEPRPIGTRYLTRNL
Sequence of AAV2 capsid PLA2 (P03135 203-735 partner limits assumed): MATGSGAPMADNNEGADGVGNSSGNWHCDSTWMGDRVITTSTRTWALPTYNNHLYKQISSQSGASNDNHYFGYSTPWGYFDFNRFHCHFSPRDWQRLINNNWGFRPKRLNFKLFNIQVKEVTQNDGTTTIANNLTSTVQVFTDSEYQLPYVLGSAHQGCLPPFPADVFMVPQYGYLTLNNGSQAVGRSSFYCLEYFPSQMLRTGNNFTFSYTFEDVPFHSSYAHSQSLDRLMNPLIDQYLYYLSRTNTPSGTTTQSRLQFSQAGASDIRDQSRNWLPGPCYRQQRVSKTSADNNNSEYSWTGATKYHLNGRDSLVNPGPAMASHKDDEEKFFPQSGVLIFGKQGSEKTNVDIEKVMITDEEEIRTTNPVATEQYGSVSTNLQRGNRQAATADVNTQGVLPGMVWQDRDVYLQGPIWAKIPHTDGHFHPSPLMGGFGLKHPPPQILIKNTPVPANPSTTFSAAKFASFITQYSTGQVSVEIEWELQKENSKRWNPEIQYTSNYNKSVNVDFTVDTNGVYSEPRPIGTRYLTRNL
Description: 10^10 purified AV2FVIII virions were treated with various conditions to activate PLA2 activity in the capsid of purified virions. This included pre-incubation of virus with various concentration of H2O2 for 15 minutes at 37° C. or partial heat denaturation at 70° C. for 2 minutes. Catalase was added to virus treated with H2O2 at the end of the treatment period to scavenge H2O2 prior to the PLA2 activity assay. PLA2 activity of virions was determined by the release of radioactive fatty acid from L-3-phosphatidylcholine (PC), 1,2-di[1-^14C]oleoyl using the protocol described by Zadori et al. (2001).

AAV2 capsid [2] = molecular target: T1, AAV2 capsid (Adeno-associated virus 2, UniProt P03135); settings: 100 nM H2O2
T1 sequence (P03135 whole entry): as the sequence (P03135 whole entry) above
T1 sequence (P03135 1-598 isoform P03135-2): as the sequence (P03135 1-598 isoform P03135-2 partner) above
T1 sequence (P03135 203-735): as the sequence (P03135 203-735 partner limits assumed) above
Description: Subtle changes in capsid structure of the virion following heat denaturation or exposure to H2O2 was assayed using MALDI-TOF mass spectrometry following trypsin digestion. Briefly, 10^10 AAV2 particles were treated with H2O2 (which was then removed by dialysis for 1 hour against 20 mM Tris, 20 mM NaCl, pH 8.0) or heated to 70° C. as described above and then incubated with 500 ng of porcine trypsin in 25 mM NH4HCO3 (pH 8.0) at 37° C. for 16 hours. The digested products were then sequentially incubated with 10 mM DTT and 55 mM of iodoacetamide to reduce and modify cysteine residues. 1/20 of the original sample was assayed on a Bruker Biflex III MALDI-TOF MS. For the analysis of cysteine modification, the theoretical m/z values of peptides containing individual cysteines were predicted without modification, with iodoacetamide modification, and with different oxidative (sulfenic, sulfinic, or sulfonic) modifications. Spectra were evaluated using ExPASy (http://us.expasy.org/tools/peptide-mass.html) and compared to the theoretical spectra for various VP proteins.

AAV2 capsid [3] = molecular target: T1, AAV2 capsid; settings: following 100 nM H2O2 treatment; data not shown
AAV2 [4] = settings: Sanlioglu et al., 2004; 1999; cited from earlier work
AAV2 [5] = experiment: AAV2 (AV2Luc) transduction of IB3 cells, luciferase activity; assay type: cell-based
Description: as §1
(§3) In studies evaluating the efficiency of viral transduction, AV2Luc virus was used at a multiplicity of infection (MOI) equal to 1,000 particles/cell, and luciferase activity was measured at 24 hours post-infection. In studies evaluating viral entry, cells were incubated with 1,000 particles/cell of AV2FVIII at 4° C. for 30 minutes prior to removing virus, washing cells, and shifting cells to 37° C. Cells were then incubated for the indicated times and postnuclear supernatants (PNS) were prepared for analysis of intracellular AAV2. Taqman PCR was used to quantify the abundance of viral genomes in different subcellular fractions following infection using primer sets and methods described in Ding et al. (2006). […]

AAV2 [6] = experiment: AAV2 (AV2Luc) transduction of Nox1/Nox2 WT and KO primary mouse dermal fibroblasts (PMDF); assay type: cell-based; settings: catalase 1 mg/ml
Description: as §1, §3

NADPH oxidase = molecular target: T2, NADPH oxidase (Homo sapiens, UniProt P04839); experiment: NADPH-dependent superoxide production in endosomal (vesicular) fractions, lucigenin-based assay; assay type: biochemical; settings: HeLa cells; 20 minutes following infection; catalase 1 mg/mL
T2 construct: endogenous in cells; host or cells: iodixanol-fractionated endosomal (vesicular) fractions of HeLa and IB3 cells after AAV2 infection
Description: Vesicular fractionation was performed using a previously described protocol (Li et al., 2006b) with minor modifications. Briefly, cells were harvested by scraping and washing twice in 4° C. phosphate-buffered saline (PBS). Cells were then pelleted and resuspended on ice in 1 mL of pre-cooled (4° C.) homogenization buffer (0.25 M sucrose, 10 mM triethanolamine, 1 mM EDTA, 1 mM PMSF, and 100 μg/mL aprotinin) and homogenized using a nitrogen decompression vessel (Parr Instrument, Moline, Ill.). Methods for generating PNS, iodixanol isolation of vesicular fractions, sample collection, quality control, and Nox activity assays were performed as described in Li et al. (2006b).
In brief, vesicular fractions were confirmed by Western blot to contain known endosomal Rab proteins and be devoid of markers for plasma membrane and mitochondria. Nox activities were analyzed by measuring the rate of .O2— generation using a chemiluminescent, lucigenin-based system. […] The reaction was initiated by the addition of 100 μM of NADPH (Sigma-Aldrich, St. Louis, Mo.) and changes in luminescence were measured over the course of 3 min (5 readings/sec). The slope of the luminescence curve (relative light units [RLU] per minute) (r>0.95) was used to calculate the rate of .O2^− formation as an index of NADPH oxidase activity.

AAV2 [7] = experiment: Virion endosomal escape assay (30% iodixanol cushion) in HeLa cells; assay type: cell-based; settings: 1 hour following infection, catalase loading
Description: A protocol using a 30% iodixanol cushion was developed to separate AAV2 virions in the cytoplasm from those inside endosomes. Briefly, HeLa cells were incubated with 1,000 particles/cell of AAV2 at 4° C. for 30 minutes before removing virus, washing cells, and shifting cells to 37° C. Cells were then incubated for the indicated times and PNS were prepared. A total volume of 500 μl PNS was then loaded on the top of 250 μl 30% iodixanol, followed by centrifugation at 100,000×g for 1 hour. Viral genome within the supernatant and pellet were quantified by real-time PCR.

AAV2 [8] = experiment: Viral uptake/accumulation, viral genomes quantified by Taqman PCR, HeLa cells; assay type: cell-based
Description: as §2, with “In studies evaluating the efficiency of viral transduction, AV2Luc virus was used at a multiplicity of infection (MOI) equal to 1,000 particles/cell, and luciferase activity was measured at 24 hours post-infection. In” for “In”

[9] = HeLa cells, antimycin A 10 μM, L-NMMA 5 mM, rotenone 2 nM, 16 hours post-infection

c1ccc2c(c1)[I+]c1ccccc1-2 [DPI]
inhibition of AAV2 transduction (AAV2 [1]; HeLa cells, absence of proteasome inhibitors, 16 hours post-infection): 100 fold | inhibition of AAV2 transduction (AAV2 [1]; HeLa cells, presence of proteasome inhibitors, 16 hours post-infection): 1000 fold

OO [H2O2, hydrogen peroxide]
PLA2 activity of H2O2-treated virions (AAV2 capsid PLA2): greater than that seen following partial virion heat denaturation | optimal concentration of H2O2 for PLA2 activation (AAV2 capsid PLA2): 100 nM | tryptic digestion of AAV2 virions after pre-treatment (AAV2 capsid [2]): significantly enhanced tryptic digestion | number of cysteines that form sulfonic acid in the capsid (AAV2 capsid [3]): < 5% | effect on AAV2 transduction (AAV2 [4]): increase AAV2 transduction

C=C(C)[C@H]1Cc2c(ccc3c2O[C@@H]2COc4cc(OC)c(OC)cc4[C@@H]2C3=O)O1 [rotenone]
effect on AAV2 transduction (AAV2 [1]; [9]): did not significantly affect

antimycin A
effect on AAV2 transduction (AAV2 [1]; [9]): did not significantly affect

CC(=O)O.CNC(=N)NCCC[C@H](N)C(=O)O [L-NMMA, N^G-monomethyl-L-arginine acetate]
effect on AAV2 transduction (AAV2 [1]; [9]): did not significantly affect

SOD1: purified bovine Cu/Zn superoxide dismutase (Oxis Research)
effect on AAV2 transduction (AAV2 [1]; endosomal loading with purified SOD1, absence or presence of proteasome inhibitors): failed to alter

CC(=O)N[C@@H](CS)C(=O)O [NAC, N-acetyl-L-cysteine]
effect on AAV2 transduction (AAV2 [4]): inhibit transduction

B1: catalase: purified bovine catalase (Sigma-Aldrich) loaded into endosomes to clear H2O2 (protein, UniProt P00432 2-527, looked up)
Catalase: ADNRDPASDQMKHWKEQRAAQKPDVLTTGGGNPVGDKLNSLTVGPRGPLLVQDVVFTDEMAHFDRERIPERVVHAKGAGAFGYFEVTHDITRYSKAKVFEHIGKRTPIAVRFSTVAGESGSADTVRDPRGFAVKFYTEDGNWDLVGNNTPIFFIRDALLFPSFIHSQKRNPQTHLKDPDMVWDFWSLRPESLHQVSFLFSDRGIPDGHRHMNGYGSHTFKLVNANGEAVYCKFHYKTDQGIKNLSVEDAARLAHEDPDYGLRDLFNAIATGNYPSWTLYIQVMTFSEAEIFPFNPFDLTKVWPHGDYPLIPVGKLVLNRNPVNYFAEVEQLAFDPSNMPPGIEPSPDKMLQGRLFAYPDTHRHRLGPNYLQIPVNCPYRARVANYQRDGPMCMMDNQGGAPNYYPNSFSAPEHQPSALEHRTHFSGDVQRFNSANDDNVTQVRTFYLKVLNEEQRKRLCENIAGHLKDAQLFIQKKAVKNFSDVHPEYGSRIQALLDKYNEEKPKNAVHTYVQHGSHLSAREKANL
effect on ability of proteasome inhibitors to enhance AAV2 transduction (AAV2 [1]; HeLa cells, 40 μM LLnL and 5 μM doxorubicin): completely abolished | effect on AAV2 transduction (luciferase transgene expression) (AAV2 [1]; HeLa cells, 1 mg/mL catalase endosomal loading): significantly inhibited | ability of catalase loading to inhibit viral transduction (AAV2 [1]; catalase added by 30 minutes post-infection): significantly declined | ability of catalase loading to inhibit viral transduction (AAV2 [1]; catalase added by 60 minutes post-infection): completely absent | decrease of rAAV2 transduction by catalase loading (AAV2 [1]; endosomal catalase loading, cell type not stated in b12): about 80 fold | effect on ability of proteasome inhibitors to enhance AAV2 transduction (AAV2 [5]; 40 μM LLnL and 5 μM doxorubicin): completely abolished | effect on AAV2 transduction (luciferase transgene expression) (AAV2 [5]; 1 mg/mL catalase endosomal loading): significantly inhibited | effect on AAV2 transduction (AAV2 [6]; Nox1+/+ and Nox1-/- PMDFs, baseline and proteasome inhibitor induced): inhibited transduction | effect on AAV2 transduction (AAV2 [6]; Nox2-/- PMDFs): did not significantly alter | effect on Nox activity in the endosomal compartment (NADPH oxidase): did not affect | inhibition of viral escape from endosomes (AAV2 [7]): about 3 fold | effect on viral uptake (AAV2 [8]; 1 mg/mL catalase): not due to impaired viral uptake | effect on viral accumulation in the endosomal compartment (AAV2 [8]; 20 minutes following infection, catalase 1 mg/mL): did not affect
